Among the targets are HLA-A*02:02; HLA-A*02:06; HLA-A*02:03; HLA-A*68:01; HLA-A*11:01; HLA-A*33:01; HLA-A*31:01; HLA-A*03:01.
Holding throughout (test): IEDB peptide-MHC binding, purified MHC/competitive/radioactivity; filed as Kd, often an IC50 or EC50 that approximates it; ≥ and ≤ were set here for values at or beyond the usual limits of such assays
Setting [1] is: source organism: Vaccinia virus WR.
The mark [2] stands for this setting: source organism: SARS coronavirus Tor2.
The mark [3] stands for this setting: source organism: Dengue virus 1 Brazil/97-11/1997.
Where [4] appears, read: source organism: Dengue virus 2 Jamaica/1409/1983.
Setting [5] is: source organism: Dengue virus 3 Martinique/1243/1999.
Where [6] appears, read: source organism: Lymphocytic choriomeningitis virus (strain Armstrong).
Setting [7] is: source organism: Dengue virus 4 Philippines/H241/1956.
The mark [8] stands for this setting: source organism: Mammarenavirus tacaribeense.

The Kd is the free concentration of one partner at which half of the binding sites on the other are occupied at equilibrium, for simple one-to-one binding. In the case of MTSTRTIILV, the dissociation constant Kd with HLA-A*02:02 (setting [1]) stood at 1980 nM; with HLA-A*02:06 (setting [1]) it was 217 nM; with HLA-A*02:03 (setting [1]) it was 920 nM.
For AAITLVVISV, the values for the Kd with HLA-A*02:02 (setting [1]), with HLA-A*02:06 (setting [1]) and in the test with HLA-A*02:03 (setting [1]) were 501 nM, 26.8 nM and 246 nM, respectively.
The like results for LQDIVNEHDI were, in that order, 7630 nM, 10900 nM and at least 38200 nM.
The like results for DAKRNSKSL were, in that order, 13700 nM, at least 77100 nM and at least 49700 nM.
The matching figures for DAMIHKTYI: 5420 nM, 9570 nM and 1520 nM.
For the sequence LLLSICLGSL, the results for the Kd with HLA-A*02:02 (setting [2]), with HLA-A*02:06 (setting [2]) and in the test with HLA-A*02:03 (setting [2]) were 20.1 nM, 258 nM and 104 nM, respectively.
The matching figures for FLLNKEMYL: 0.329 nM, 1.6 nM and 1.13 nM.
Take FLTSLLILV: the Kd is 2.17 nM in the test with HLA-A*02:02 (setting [2]), 3.31 nM with HLA-A*02:06 (setting [2]) and 12 nM with HLA-A*02:03 (setting [2]).
Take SLETVKMGA: the results for the equilibrium dissociation constant (Kd) with HLA-A*02:02 (setting [1]), in the test with HLA-A*02:06 (setting [1]) and with HLA-A*02:03 (setting [1]) were 11200 nM, at least 23400 nM and 547 nM, respectively.
The like results for IVNCLSLSNL were, in that order, 338 nM, 1280 nM and 128 nM.
With PLNEGIMAI, in the test with HLA-A*02:03 (setting [3]), the Kd is 63.8 nM.
Take LTHFNNNENV: the results for the Kd with HLA-A*02:02 (setting [1]), in the test with HLA-A*02:06 (setting [1]) and in the test with HLA-A*02:03 (setting [1]) were 907 nM, 996 nM and 7270 nM, respectively.
For MAILCVPNAV, the Kd with HLA-A*02:06 (setting [4]) was found to be 5.35 nM.
Regarding FIPIIYSKA, the Kd with HLA-A*02:02 (setting [1]) was found to be 0.555 nM; with HLA-A*02:06 (setting [1]) it was 94.6 nM; with HLA-A*02:03 (setting [1]) it was 1.81 nM.
On to IMAFILGII, for which the values for the Kd in the test with HLA-A*02:02 (setting [1]), with HLA-A*02:06 (setting [1]) and in the test with HLA-A*02:03 (setting [1]) were 17 nM, 175 nM and 29.8 nM, respectively.
On to ELWARISSSL, for which the Kd with HLA-A*02:02 (setting [1]) was determined as 175 nM; with HLA-A*02:06 (setting [1]) it was 9290 nM; with HLA-A*02:03 (setting [1]) it was 324 nM.
The like results for KLYGYASLT were, in that order, 75.8 nM, 1990 nM and 21.5 nM.
In the case of DTIAHINTL, the Kd came out at 747 nM with HLA-A*02:02 (setting [1]), 11200 nM in the test with HLA-A*02:06 (setting [1]) and 233 nM in the test with HLA-A*02:03 (setting [1]).
KQIANELNYI: the Kd in the test with HLA-A*02:06 (setting [5]) worked out at 32.5 nM.
With KLFKRERDAI, the values for the Kd with HLA-A*02:02 (setting [1]), with HLA-A*02:06 (setting [1]) and with HLA-A*02:03 (setting [1]) were 92.5 nM, 14200 nM and 120 nM, respectively.
The like results for DVEKEKFVAT were, in that order, at least 37500 nM, at least 69200 nM and at least 54800 nM.
As to MVTDKTAYI, the Kd in the test with HLA-A*02:02 (setting [1]) amounted to 16.8 nM; in the test with HLA-A*02:06 (setting [1]), 25.2 nM; with HLA-A*02:03 (setting [1]), 1.99 nM.
Take GMVTLYLGV: in the test with HLA-A*02:03 (setting [3]), the Kd came out at 12.4 nM.
MAAAKTPVI: the Kd with HLA-A*02:02 (setting [1]) is 259 nM; with HLA-A*02:06 (setting [1]) it was 672 nM; in the test with HLA-A*02:03 (setting [1]), 209 nM.
On to QTGINNVQSL, for which the dissociation constant (Kd) with HLA-A*02:02 (setting [1]) was at least 20200 nM; with HLA-A*02:06 (setting [1]) it was at least 54000 nM; in the test with HLA-A*02:03 (setting [1]), at least 24400 nM.
With HNASDFYGL, the Kd is 6510 nM in the test with HLA-A*02:02 (setting [6]), at least 21700 nM in the test with HLA-A*02:06 (setting [6]) and at least 78100 nM in the test with HLA-A*02:03 (setting [6]).
Turning to ELTSNCTRTT, the Kd in the test with HLA-A*02:02 (setting [1]) was found to be 14600 nM; in the test with HLA-A*02:06 (setting [1]), 5720 nM; with HLA-A*02:03 (setting [1]), 1470 nM.
As to FVLALYSPPL, the Kd with HLA-A*02:02 (setting [1]) was 2.19 nM; with HLA-A*02:06 (setting [1]) it was 212 nM; in the test with HLA-A*02:03 (setting [1]) it was 38.4 nM.
As to LLMLVTPSMT, the Kd in the test with HLA-A*02:03 (setting [5]) stood at 169 nM.
With TLLATVTGGI, the Kd with HLA-A*02:03 (setting [4]) worked out at 12.8 nM.
As for SLIGSKTQI, the values for the Kd in the test with HLA-A*02:06 (source organism: Homo sapiens) and with HLA-A*02:03 (source organism: Homo sapiens) were 10600 nM and 23.8 nM, respectively.
On to GLSSRATWA, for which the Kd with HLA-A*02:03 (setting [7]) came to 36.9 nM.
For the sequence GLFGKGSLI, the Kd with HLA-A*02:03 (source organism: Dengue virus 1 Nauru/West Pac/1974) came to 13 nM.
Regarding FQDGVFHTM, the dissociation constant Kd with HLA-A*02:06 (setting [3]) is 13.8 nM.
As to GLFKTNTGTI, in the test with HLA-A*02:03 (setting [4]), the Kd worked out at 45.8 nM.
As to KTLTGEIGAV, the Kd with HLA-A*02:06 (setting [7]) is 30.7 nM.
In the case of LQWIASAIV, the Kd with HLA-A*02:06 (setting [5]) is 3.72 nM.
Take MSYYCKSHK: the Kd amounted to 55.3 nM with HLA-A*68:01 (setting [2]); 78.9 nM in the test with HLA-A*11:01 (setting [2]); 1590 nM with HLA-A*33:01 (setting [2]); 18.9 nM with HLA-A*31:01 (setting [2]); 15.1 nM in the test with HLA-A*03:01 (setting [2]).
As for QQVVDADSK, the Kd in the test with HLA-A*68:01 (setting [2]) was at least 65800 nM; with HLA-A*11:01 (setting [2]), at least 26300 nM; with HLA-A*33:01 (setting [2]), at least 77700 nM; with HLA-A*31:01 (setting [2]), at least 77900 nM; with HLA-A*03:01 (setting [2]), at least 28000 nM.
Regarding DLVKSSFVK, the Kd with HLA-A*68:01 (setting [1]) was 77 nM; with HLA-A*11:01 (setting [1]), 127 nM; in the test with HLA-A*33:01 (setting [1]), 905 nM; in the test with HLA-A*31:01 (setting [1]), 94.2 nM; in the test with HLA-A*03:01 (setting [1]), 1790 nM.
With NCKCCWFADK, the Kd with HLA-A*68:01 (setting [8]) was at least 20700 nM; with HLA-A*11:01 (setting [8]), at least 69700 nM; with HLA-A*33:01 (setting [8]) it was at least 29600 nM; with HLA-A*31:01 (setting [8]), 12100 nM; with HLA-A*03:01 (setting [8]) it was 13300 nM.

(Values after the Immune Epitope Database (IEDB).)
